Test results: publication PMC10680838

Target: DcpA (Agrobacterium tumefaciens C58)
Assay: cross-linking

For PruR (natural protein), which stoichiometry N is on record?
The stoichiometry N was 1.
